# T1: ADAMTSL2 (a disintegrin and metalloproteinase with thrombospondin motifs-like 2), recombinant (human, UniProt Q86TH1 23-951)
# T1 construct: ADAMTSL2, secreted glycoprotein; source: recombinant, purified as described previously (Koo et al., 2007)
# T1 sequence (looked up): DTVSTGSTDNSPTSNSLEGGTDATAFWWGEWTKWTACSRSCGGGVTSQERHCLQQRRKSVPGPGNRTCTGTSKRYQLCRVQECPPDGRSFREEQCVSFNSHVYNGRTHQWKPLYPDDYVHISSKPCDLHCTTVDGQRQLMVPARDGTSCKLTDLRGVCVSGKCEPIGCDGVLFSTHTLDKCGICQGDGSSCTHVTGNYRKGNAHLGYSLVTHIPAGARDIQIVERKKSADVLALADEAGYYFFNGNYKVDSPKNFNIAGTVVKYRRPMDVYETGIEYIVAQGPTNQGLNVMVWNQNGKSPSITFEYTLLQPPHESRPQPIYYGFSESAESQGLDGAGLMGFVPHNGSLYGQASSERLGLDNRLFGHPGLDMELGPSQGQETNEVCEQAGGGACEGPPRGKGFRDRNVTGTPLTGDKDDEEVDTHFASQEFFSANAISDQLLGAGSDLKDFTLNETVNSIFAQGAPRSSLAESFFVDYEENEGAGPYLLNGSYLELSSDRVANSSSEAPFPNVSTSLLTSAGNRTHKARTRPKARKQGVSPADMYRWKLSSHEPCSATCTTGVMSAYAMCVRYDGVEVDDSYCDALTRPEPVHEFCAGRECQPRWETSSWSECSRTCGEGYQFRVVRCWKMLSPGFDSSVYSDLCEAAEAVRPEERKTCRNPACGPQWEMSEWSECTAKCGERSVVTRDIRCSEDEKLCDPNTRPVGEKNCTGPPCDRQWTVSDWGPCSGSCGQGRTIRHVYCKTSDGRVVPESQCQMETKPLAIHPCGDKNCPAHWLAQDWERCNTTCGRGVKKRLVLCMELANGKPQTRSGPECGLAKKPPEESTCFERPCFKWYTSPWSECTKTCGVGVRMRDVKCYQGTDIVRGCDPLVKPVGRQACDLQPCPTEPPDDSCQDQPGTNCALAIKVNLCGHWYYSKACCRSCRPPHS
# Target: T1, ADAMTSL2 (a disintegrin and …)
# Assay: SPR; ADAMTSL2 immobilised by amine coupling on a CM5 chip (about 1500 RU), fibrillin fragments injected; BIAcore 3000; 25°C; 10 mM HEPES pH 7.4, 150 mM NaCl, 2 mM CaCl2, 0.005% surfactant P20; 20 ul/min; n=2
# Settings: both partners purified
row,Binder,Kd
1,"N-terminal half of fibrillin-1 (FBN1), recombinant fragment (domain or fragment) not shown",14.3 nM
2,"C-terminal half of fibrillin-1 (FBN1), recombinant fragment (domain or fragment) not shown",8 nM
